Measured values from US20160228520A1.

Biological target: PR-3 receptor (proteinase 3) on TNF-primed human peripheral blood neutrophils (human) (UniProt P24158)
Experiment: cell-based or functional assay

Sequence of UniProt P24158 (P24158 28-248): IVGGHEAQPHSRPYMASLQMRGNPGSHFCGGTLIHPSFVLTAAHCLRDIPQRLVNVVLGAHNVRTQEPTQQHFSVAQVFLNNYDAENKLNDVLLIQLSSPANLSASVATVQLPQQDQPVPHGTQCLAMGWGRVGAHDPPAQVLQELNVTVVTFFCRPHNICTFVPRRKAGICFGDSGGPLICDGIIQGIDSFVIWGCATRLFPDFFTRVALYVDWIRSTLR

Substance “α1-antichymotrypsin (Athens Research & Technology, Cat. No. 16-16-012400) (from UniProt P01011 24-423)” has a % Release of calcein from HUVEC, α-PR3 mAbs added, negative control (0.25 mg/mL α1 antichymotrypsin by the text) of 21.9% and a Mean fluorescence, HUVEC assay, α-PR3 mAbs added, negative control of 4420.
